Laboratory results published in article PMC2811017.
Where two headings read alike, the source gives them in different places.

How the values were obtained:
Assay in all cases: ITC
[1] = target: full-length human eRF3a (GSPT1) (human)
[2] = target: eRF1:eRF3 complex (human) (UniProt P62495)
[3] = target: full-length human eRF3a (GSPT1) (human); remark: listed apart in the source

Row | Kd [1] [nM] | dH [1] [kcal/mol] | stoichiometry N (PABP per eRF3) [1] | Kd [2] [nM] | dH [2] [kcal/mol] | stoichiometry N (PABP per eRF3) [2] | Ka [1] [M⁻¹] | Ka [3] [M⁻¹] | dH [3] [kcal/mol] | Substance
1 | 700 | -30.3 | 0.5 | 700 | -26.3 | 0.71 |  |  |  | human 6His cytoplasmic poly(A)-binding protein (PABP) (from UniProt P11940 1-636) (natural protein)
2 |  | -6.1 |  |  |  |  | 4.4e+06 | 1.1e+06 | -10.8 | human 6His eRF1 (from UniProt P62495 1-437) (natural protein)
